Results published in the supplement of paper PMC10065799, “High-throughput profiling of sequence recognition by tyrosine kinases and SH2 domains using bacterial peptide display” (eLife, 2023).

Key:
[1] = system: c-Abl (mouse); test: phosphorylation enrichment, bacterial display (enrichment ratio); higher = better substrate or ligand; peptides without Tyr show the background
[2] = system: AncSZ; test: as above
[3] = target: EPHB1 (UniProt P54762); test: as above
[4] = target: Fes (UniProt P07332); test: as above
[5] = target: EPHB2 (UniProt P29323); test: as above
[6] = system: c-Src; test: as above
[7] = target: Fyn (UniProt P06241); test: as above
[8] = target: Hck (UniProt P08631); test: as above
[9] = target: Jak2 (UniProt O60674); test: as above
[10] = target: MERTK (UniProt Q12866); test: as above
[11] = system: Fer (mouse); test: as above
[12] = target: FGFR3 (UniProt P22607); test: as above
[13] = target: FGFR1 (UniProt P11362); test: as above
[14] = target: c-Src SH2; test: SH2 binding enrichment of the phosphorylated peptide, bacterial display (enrichment ratio); higher = better substrate or ligand; peptides without Tyr show the background
[15] = target: SHP2-C SH2; test: as above
[16] = target: Grb2 SH2 (UniProt P62993); test: as above
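Throughout, for SH2 binding enrichment of the phosphorylated peptide, bacterial display: peptide library displayed on the E. coli surface as eCPX fusions, selected cells deep-sequenced, score is each peptide's frequency after selection divided by its frequency in the input.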
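Throughout, for phosphorylation enrichment, bacterial display: 11-residue human phosphosite peptides and single-mutation variants displayed on the E. coli surface, counted by deep sequencing, each peptide's frequency after selection divided by its frequency in the unselected input library; frequency after pTyr selection over input frequency; kinase dosed for 20-30% of maximal phosphorylation in three min.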

Jak2, sequence (O60674 whole entry, looked up): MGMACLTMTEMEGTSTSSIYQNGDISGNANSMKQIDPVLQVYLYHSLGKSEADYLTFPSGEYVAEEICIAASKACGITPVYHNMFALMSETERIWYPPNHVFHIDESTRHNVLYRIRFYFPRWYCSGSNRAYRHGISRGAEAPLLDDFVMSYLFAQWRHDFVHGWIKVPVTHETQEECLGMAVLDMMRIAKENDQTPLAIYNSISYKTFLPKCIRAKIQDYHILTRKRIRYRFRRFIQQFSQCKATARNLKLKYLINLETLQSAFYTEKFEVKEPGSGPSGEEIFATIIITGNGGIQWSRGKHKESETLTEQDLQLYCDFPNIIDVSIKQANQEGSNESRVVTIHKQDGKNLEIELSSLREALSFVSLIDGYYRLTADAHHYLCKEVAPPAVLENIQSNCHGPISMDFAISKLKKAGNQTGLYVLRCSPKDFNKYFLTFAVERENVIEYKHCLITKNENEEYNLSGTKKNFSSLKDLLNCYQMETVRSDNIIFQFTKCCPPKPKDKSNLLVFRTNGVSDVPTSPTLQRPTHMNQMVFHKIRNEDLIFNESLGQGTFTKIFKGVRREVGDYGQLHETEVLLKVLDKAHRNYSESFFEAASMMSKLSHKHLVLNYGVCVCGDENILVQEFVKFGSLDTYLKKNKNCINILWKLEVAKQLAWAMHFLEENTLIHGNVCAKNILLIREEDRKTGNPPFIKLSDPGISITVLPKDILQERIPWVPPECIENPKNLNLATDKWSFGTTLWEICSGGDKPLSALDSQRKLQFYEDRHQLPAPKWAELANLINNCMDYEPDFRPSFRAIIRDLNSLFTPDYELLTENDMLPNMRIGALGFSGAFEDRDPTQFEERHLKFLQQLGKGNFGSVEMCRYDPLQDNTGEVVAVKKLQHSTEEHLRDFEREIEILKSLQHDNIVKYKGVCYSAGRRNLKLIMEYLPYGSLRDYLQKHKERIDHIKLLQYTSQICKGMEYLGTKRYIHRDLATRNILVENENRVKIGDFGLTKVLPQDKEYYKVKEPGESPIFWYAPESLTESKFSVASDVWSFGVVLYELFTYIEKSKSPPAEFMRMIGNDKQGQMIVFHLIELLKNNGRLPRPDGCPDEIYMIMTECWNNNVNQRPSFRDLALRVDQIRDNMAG
Fyn, sequence (P06241 whole entry, looked up): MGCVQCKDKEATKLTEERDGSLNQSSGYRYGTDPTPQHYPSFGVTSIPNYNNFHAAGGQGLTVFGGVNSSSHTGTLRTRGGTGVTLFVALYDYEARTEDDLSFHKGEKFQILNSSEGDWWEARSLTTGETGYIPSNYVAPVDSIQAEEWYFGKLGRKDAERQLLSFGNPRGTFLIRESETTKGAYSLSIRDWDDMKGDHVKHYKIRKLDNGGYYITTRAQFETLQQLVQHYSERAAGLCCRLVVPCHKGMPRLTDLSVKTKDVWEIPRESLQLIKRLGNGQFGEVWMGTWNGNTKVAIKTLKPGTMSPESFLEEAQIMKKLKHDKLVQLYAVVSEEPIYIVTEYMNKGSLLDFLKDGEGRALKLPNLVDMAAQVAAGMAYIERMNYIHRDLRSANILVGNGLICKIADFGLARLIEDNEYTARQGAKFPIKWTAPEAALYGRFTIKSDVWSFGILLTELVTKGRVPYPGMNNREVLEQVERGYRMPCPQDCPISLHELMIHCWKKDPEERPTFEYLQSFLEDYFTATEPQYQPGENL
Grb2 SH2, sequence (P62993 whole entry, looked up, the tested form may be a part): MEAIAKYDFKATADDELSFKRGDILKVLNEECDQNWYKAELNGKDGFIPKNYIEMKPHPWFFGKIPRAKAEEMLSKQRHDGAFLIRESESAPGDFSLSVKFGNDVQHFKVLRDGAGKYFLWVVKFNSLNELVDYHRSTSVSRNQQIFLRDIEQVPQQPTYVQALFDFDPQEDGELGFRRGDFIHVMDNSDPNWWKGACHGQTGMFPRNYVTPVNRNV
FGFR3, sequence (P22607 whole entry, looked up): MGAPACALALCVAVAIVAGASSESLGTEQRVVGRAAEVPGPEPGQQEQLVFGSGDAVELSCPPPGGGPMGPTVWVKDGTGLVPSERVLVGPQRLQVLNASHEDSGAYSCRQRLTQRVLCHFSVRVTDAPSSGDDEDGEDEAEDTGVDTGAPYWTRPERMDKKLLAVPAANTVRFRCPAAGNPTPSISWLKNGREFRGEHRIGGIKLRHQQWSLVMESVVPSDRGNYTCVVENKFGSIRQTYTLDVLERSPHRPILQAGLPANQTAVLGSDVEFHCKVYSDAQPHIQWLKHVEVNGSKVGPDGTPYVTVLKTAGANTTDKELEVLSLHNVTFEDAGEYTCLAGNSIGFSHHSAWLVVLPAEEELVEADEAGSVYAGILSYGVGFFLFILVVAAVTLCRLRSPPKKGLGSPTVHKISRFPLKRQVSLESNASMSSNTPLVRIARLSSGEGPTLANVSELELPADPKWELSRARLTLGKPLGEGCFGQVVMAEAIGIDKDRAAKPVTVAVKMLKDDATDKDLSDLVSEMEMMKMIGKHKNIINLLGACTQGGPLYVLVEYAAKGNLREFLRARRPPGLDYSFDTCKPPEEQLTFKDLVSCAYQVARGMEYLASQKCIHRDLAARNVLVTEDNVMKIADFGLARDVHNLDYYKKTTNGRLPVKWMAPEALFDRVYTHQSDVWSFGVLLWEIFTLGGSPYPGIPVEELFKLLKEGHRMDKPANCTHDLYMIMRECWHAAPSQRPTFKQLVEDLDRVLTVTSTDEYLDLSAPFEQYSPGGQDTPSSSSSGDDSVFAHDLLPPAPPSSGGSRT
EPHB2, sequence (P29323 whole entry, looked up): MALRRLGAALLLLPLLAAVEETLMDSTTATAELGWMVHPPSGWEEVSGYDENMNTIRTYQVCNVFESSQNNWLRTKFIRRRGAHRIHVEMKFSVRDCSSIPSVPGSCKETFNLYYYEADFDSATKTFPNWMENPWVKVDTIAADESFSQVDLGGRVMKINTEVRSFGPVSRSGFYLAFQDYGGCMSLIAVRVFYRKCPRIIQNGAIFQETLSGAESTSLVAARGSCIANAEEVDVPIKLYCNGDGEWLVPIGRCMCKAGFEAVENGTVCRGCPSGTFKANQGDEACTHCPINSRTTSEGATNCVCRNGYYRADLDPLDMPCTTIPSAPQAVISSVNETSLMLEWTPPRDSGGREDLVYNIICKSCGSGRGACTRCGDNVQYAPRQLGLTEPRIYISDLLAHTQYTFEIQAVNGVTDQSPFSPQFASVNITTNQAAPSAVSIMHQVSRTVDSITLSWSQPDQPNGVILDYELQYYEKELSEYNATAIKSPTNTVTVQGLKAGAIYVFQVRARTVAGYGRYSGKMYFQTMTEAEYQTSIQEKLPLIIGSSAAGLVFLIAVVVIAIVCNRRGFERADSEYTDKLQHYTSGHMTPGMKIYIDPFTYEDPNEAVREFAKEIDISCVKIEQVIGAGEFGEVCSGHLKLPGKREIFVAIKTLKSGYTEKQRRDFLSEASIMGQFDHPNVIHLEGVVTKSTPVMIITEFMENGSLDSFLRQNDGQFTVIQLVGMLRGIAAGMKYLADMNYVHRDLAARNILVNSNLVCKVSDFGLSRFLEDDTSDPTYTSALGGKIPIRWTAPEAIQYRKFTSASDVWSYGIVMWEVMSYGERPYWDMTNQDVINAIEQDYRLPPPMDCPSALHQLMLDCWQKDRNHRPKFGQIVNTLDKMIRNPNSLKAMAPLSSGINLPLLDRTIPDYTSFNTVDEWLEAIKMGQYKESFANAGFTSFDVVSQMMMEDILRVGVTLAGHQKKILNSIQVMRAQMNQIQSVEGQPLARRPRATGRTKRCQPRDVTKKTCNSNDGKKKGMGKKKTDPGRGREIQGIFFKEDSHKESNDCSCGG
Hck, sequence (P08631 whole entry, looked up): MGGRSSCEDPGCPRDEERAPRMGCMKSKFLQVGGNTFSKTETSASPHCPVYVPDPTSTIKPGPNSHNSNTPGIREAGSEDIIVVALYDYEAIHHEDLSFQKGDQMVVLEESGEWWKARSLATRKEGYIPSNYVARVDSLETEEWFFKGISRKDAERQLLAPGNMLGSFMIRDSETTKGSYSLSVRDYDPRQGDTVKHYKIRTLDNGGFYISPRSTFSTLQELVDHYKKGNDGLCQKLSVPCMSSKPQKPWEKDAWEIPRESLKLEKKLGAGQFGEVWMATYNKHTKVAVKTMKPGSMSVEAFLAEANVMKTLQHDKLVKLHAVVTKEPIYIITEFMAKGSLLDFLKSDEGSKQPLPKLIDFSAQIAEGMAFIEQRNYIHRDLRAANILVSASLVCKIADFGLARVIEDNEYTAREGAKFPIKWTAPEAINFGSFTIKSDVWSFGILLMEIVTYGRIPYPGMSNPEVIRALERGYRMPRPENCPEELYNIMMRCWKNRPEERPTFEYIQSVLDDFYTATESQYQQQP

Sequence | phosphorylation enrichment [1] | phosphorylation enrichment [2] | phosphorylation enrichment [3] | phosphorylation enrichment [4] | phosphorylation enrichment [5] | phosphorylation enrichment [6] | phosphorylation enrichment [7] | phosphorylation enrichment [8] | phosphorylation enrichment [9] | phosphorylation enrichment [10] | phosphorylation enrichment [11] | phosphorylation enrichment [12] | phosphorylation enrichment [13] | SH2 binding enrichment [14] | SH2 binding enrichment [15] | SH2 binding enrichment [16]
FFTEEYVRAHP [DOCK2_Y1555_D1558A] | 1.01 | 1.54 | 0.66 | 1.32 | 0.664 | 0.485 | 0.697 | 0.599 | 1.07 | 0.397 | 0.553 | 0.944 | 0.556 | 0.431 | 0.619 | 0.728
PNATLYKMSSI [SERPINA7_Y40] | 0.472 | 0.592 | 0.456 | 0.55 | 0.325 | 0.349 | 0.35 | 0.401 | 0.358 | 0.361 | 0.397 | 0.495 | 0.406 | 0.395 | 0.375 | 0.85
ELPEKYSQNIC [PKP2_Y626_Y631C] | 0.956 | 1.01 | 0.538 | 1.12 | 0.605 | 0.579 | 0.497 | 0.533 | 1.18 | 0.544 | 0.446 | 0.599 | 0.518 | 0.493 | 0.703 | 0.997
NQNIGYELGHR [KCNN3_Y268_K269E] | 0.425 | 0.496 | 0.449 | 0.486 | 0.318 | 0.305 | 0.528 | 0.37 | 0.348 | 0.276 | 0.289 | 0.403 | 0.343 | 0.672 | 0.683 | 0.892
ALLTKYSRSSM [DSCC1_Y374_H376R] | 0.697 | 0.617 | 0.505 | 0.744 | 0.535 | 0.524 | 0.465 | 0.384 | 0.816 | 0.552 | 0.442 | 0.554 | 0.579 | 0.589 | 0.615 | 0.847
FKEQGYHRLPS [RIN1_Y681_P686S_YF] | 1.3 | 1.23 | 1.26 | 1.49 | 0.603 | 0.818 | 0.305 | 0.63 | 2.09 | 1.05 | 0.822 | 0.583 | 2.57 | 1.24 | 0.762 | 1.01
ADMETYLLEKS [MYH7_Y266_I263M] | 0.864 | 0.949 | 0.612 | 1.11 | 0.581 | 0.869 | 0.573 | 0.549 | 0.983 | 0.447 | 0.454 | 0.582 | 0.573 | 0.523 | 0.564 | 0.67
RAILLYEYVGK [NATD1_Y45_V42I] | 2.4 | 3.29 | 33.9 | 7.22 | 46.9 | 11.1 | 11.2 | 15.5 | 2.34 | 19.1 | 26.3 | 5.74 | 4.68 | 1.55 | 1.25 | 1.56
ENAGYYFQVSA | 0.603 | 1.17 | 0.578 | 1.37 | 0.566 | 0.444 | 0.527 | 0.448 | 1.43 | 0.602 | 0.595 | 1.06 | 0.94 | 0.691 | 0.884 | 0.953
SLDHPFEKPRK [INAVA_Y333_Y333F] | 0.61 | 0.589 | 0.317 | 0.749 | 0.433 | 0.436 | 0.721 | 0.376 | 0.663 | 0.365 | 0.3 | 0.524 | 0.388 | 0.508 | 0.813 | 1.01
MARDIYQASYY [LTK_Y672_R673Q] | 3.09 | 1.04 | 2.55 | 0.879 | 3.03 | 6.26 | 5.45 | 6.75 | 0.78 | 5.18 | 1.97 | 1.19 | 1.41 | 0.919 | 1.03 | 1.12
ETLLYYGCRRS [POR_Y564] | 0.883 | 0.959 | 0.63 | 0.897 | 0.506 | 3.48 | 1.89 | 5.24 | 1.67 | 1.18 | 0.638 | 0.71 | 0.795 | 0.466 | 0.767 | 0.712
DAVAVYDGKIS [SH2D1A_Y7_H8D] | 0.728 | 0.721 | 0.589 | 0.988 | 0.622 | 0.83 | 0.655 | 2.02 | 0.778 | 0.498 | 0.456 | 0.565 | 0.44 | 0.47 | 0.999 | 0.735
LWQSIYNLEAE [TNNT2_Y251] | 0.881 | 1.33 | 0.793 | 1.45 | 0.791 | 6.57 | 12.4 | 7.01 | 0.921 | 0.664 | 0.544 | 1.05 | 0.66 | 0.54 | 1.48 | 1.09
QLRPGYFPIPV [BAG3_Y93_I94F] | 0.53 | 0.6 | 0.448 | 0.679 | 0.585 | 0.423 | 0.536 | 0.466 | 0.981 | 0.531 | 0.42 | 0.56 | 0.593 | 0.475 | 0.906 | 0.697
PGLRGYPGLSG [COL4A2_Y306] | 0.508 | 0.709 | 0.894 | 0.87 | 0.442 | 0.674 | 0.481 | 0.505 | 1.45 | 0.599 | 0.449 | 0.468 | 0.621 | 0.383 | 0.698 | 0.958
